According to PMC4411560:

Columns and labels:
[1] = target: 30S IC_(−1/3,Met): pseudo 30S initiation complex lacking IF1 and IF3 carrying Met-tRNA^fMet (E. coli (strain MRE600)); experiment: FRET or BRET
[2] = target: 30S IC_(−1/3): canonical 30S initiation complex lacking IF1 and IF3 (E. coli (strain MRE600)); experiment: FRET or BRET

“IF2(Cy5): Cy5-labeled E. coli initiation factor 2, γ-isoform, G810C (natural protein)” gave a koff [1] of 1.3 s⁻¹, a kon [1] of 19000 M⁻¹ s⁻¹ and a Kd [2] of 0.05 µM. The kon [2] was 1.3e+07 M⁻¹ s⁻¹.
